This passage reports Kd and koff results from patent US20260234206A1.

The target of assay [1] is calmodulin (UniProt P0DP23). Kind of assay: microscale thermophoresis, labelled SXkmer A with free calmodulin in solution.
Assay [2] concerns the target calmodulin (UniProt P0DP23). Description: SPR, CaM immobilised, SXkmer A injected, BiaEvaluate fit. A general note: In SPR one partner is held on a chip, and binding of the other changes the refractive index at the surface.

Take “Loop calmodulin binder SXkmer A (KMRPGVN) (designed binder)”: the Kd – broadly, the free concentration of one partner at which half of the binding sites on the other are occupied at equilibrium, for simple one-to-one binding – in assay [1] turned out to be 140 nM. Moreover, the koff (in general, the first-order rate constant of dissociation) in assay [2] was 1e-06 s⁻¹.
